Measured values reported in patent publication US20080267971A1 (published 2008).
Values belong to the binder of their own block, whether it stands above or below them.

B4: human Angiopoietin-1 (ligand)
chain: SNQRRSPENSGRRYNRIQHGQCAYTFILPEHDGNCRESTTDQYNTNALQRDAPHVEPDFSSQKLQHLEHVMENYTQWLQKLENYIVENMKSEMAQIQQNAVQNHTATMLEIGTSLLSQTAEQTRKLTDVETQVLNQTSRLEIQLLENSLSTYKLEKQLLQQTNEILKIHEKNSLLEHKILEMEGKHKEELDTLKEEKENLQGLVTRQTYIIQELEKQLNRATTNNSVLQKQQLELMDTVHNLVNLCTKEVLLKGGKREEEKPFRDCADVYQAGFNKSGIYTIYINNMPEPKKVFCNMDVNGGGWTVIQHREDGSLDFQRGWKEYKMGFGNPSGEYWLGNEFIFAITSQRQYMLRIELMDWEGNRAYSQYDRFHIGNEKQNYRLYLKGHTGTAGKQSSLILHGADFSTKDADNDNCMCKCALMLTGGWWFDACGPSNLNGMFYTAGQNHGKLNGIKWHYFKGPSYSLRSTTMMIRPLDF
notes: Bought recombinant protein (R&D Systems 293-AN-025/CF) or supernatant of transfected 293F cells; also called Ang-1; recombinant Ang-1

Legend:
human Ang-2443 = biological target: T1, human Ang-2443 (human, UniProt O15123 19-496); assay: ELISA
T1 construct: Splice variant missing amino acids 96-148; supernatant of transfected 293F cells
T1 sequence: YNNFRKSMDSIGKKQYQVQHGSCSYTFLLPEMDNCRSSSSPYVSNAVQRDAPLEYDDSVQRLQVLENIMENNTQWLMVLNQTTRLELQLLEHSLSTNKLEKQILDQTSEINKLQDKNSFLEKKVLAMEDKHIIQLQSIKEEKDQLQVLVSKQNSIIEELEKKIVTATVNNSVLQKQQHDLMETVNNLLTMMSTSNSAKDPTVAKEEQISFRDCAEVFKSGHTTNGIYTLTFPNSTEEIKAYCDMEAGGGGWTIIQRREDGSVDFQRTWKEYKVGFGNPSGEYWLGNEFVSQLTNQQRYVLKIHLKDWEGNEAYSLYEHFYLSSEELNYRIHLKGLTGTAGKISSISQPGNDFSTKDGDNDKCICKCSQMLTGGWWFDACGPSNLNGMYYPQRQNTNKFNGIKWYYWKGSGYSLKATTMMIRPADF

[1] = biological target: T2, Human Ang-1/2 BsmI chimeric molecule (human); assay: ELISA
T2 chain: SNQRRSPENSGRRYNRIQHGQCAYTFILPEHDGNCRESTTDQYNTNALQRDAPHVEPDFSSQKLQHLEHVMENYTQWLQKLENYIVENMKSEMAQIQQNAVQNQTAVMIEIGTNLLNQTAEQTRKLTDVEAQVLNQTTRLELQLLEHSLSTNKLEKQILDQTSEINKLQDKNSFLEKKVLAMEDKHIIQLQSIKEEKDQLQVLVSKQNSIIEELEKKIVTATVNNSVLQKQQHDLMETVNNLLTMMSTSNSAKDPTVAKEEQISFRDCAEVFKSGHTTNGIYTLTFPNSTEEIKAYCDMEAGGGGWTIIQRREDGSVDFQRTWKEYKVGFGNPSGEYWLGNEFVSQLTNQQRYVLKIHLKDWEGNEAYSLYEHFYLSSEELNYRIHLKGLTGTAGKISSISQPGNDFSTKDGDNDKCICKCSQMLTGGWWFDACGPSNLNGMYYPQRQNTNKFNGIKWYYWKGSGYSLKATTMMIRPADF

human Ang-2 V345M = biological target: T3, human Ang-2 V345M (human, UniProt O15123 19-496); assay: ELISA
T3 sequence: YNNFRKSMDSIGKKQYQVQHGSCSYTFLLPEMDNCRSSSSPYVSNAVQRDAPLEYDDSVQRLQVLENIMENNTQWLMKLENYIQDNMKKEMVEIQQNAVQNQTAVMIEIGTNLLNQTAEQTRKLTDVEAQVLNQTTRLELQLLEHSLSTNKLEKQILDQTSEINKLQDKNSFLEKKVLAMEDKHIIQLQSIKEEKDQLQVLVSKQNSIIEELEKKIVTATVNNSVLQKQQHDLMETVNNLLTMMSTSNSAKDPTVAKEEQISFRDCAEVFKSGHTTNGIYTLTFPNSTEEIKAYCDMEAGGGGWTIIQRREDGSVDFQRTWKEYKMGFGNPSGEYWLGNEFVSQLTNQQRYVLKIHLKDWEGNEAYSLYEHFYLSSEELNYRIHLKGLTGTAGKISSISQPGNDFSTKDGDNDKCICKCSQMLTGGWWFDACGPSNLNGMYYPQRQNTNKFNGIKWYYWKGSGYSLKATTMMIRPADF

human Ang-2 H375Q = biological target: T4, human Ang-2 H375Q (human, UniProt O15123 19-496); assay: ELISA
T4 sequence: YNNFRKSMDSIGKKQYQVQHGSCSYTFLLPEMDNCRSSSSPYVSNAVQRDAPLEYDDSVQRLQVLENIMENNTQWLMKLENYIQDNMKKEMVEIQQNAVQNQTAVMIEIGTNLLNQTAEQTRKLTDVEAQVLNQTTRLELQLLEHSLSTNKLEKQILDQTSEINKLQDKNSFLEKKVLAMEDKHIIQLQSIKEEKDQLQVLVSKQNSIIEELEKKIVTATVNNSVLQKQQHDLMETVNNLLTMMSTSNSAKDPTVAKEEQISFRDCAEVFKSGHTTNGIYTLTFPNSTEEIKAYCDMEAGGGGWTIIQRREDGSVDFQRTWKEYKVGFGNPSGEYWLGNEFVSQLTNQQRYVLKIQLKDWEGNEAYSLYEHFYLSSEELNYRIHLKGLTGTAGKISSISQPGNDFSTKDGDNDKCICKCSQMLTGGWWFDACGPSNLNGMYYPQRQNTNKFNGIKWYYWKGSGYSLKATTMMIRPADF

human Angiopoietin-1 = biological target: B4; assay: capture ELISA
Protocol: The binding of the top 27 human monoclonal antibodies was detected with a HRP-conjugated goat anti-human antibody, followed by colorimetric horseradish peroxidase substrate (Enhanced K-Blue TMB substrate Neogen Corporation). The absorbance of each well of the ELISA plates was measured at 450 nm on a microplate autoreader.

human Angiopoietin-2 [2] = biological target: T5, human Angiopoietin-2 (human, UniProt O15123 19-496); assay: Biacore, mAb captured
T5 construct: Mostly bought recombinant protein (R&D Systems 623-AM/CF, 623-AN; biotinylated BT623) or supernatant of transfected 293F cells; also called Ang-2; rhAng-2
T5 sequence: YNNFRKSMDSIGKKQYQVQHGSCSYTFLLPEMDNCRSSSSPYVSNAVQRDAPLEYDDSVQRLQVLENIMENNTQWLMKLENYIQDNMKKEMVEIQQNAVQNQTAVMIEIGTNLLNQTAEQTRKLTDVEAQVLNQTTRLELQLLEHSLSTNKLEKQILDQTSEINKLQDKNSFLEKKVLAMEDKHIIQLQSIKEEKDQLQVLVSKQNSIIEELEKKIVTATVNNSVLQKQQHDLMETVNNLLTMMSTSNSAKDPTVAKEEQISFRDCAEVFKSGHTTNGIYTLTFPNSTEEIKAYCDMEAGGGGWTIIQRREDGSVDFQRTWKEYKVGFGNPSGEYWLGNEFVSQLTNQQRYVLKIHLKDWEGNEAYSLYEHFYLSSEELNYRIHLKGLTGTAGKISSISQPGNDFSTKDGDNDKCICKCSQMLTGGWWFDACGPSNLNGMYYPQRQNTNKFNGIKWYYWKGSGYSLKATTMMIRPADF
Protocol: (§1) The label-free surface plasmon resonance (SPR), or Biacore, was utilized to measure the antibody affinity to the antigen. For this purpose, a high-density goat anti-human antibody surface over a CM5 Biacore chip was prepared using routine amine coupling. All the purified mAbs were diluted to approximately 8 μg/ml in HBS-P running buffer containing 100 μg/ml BSA and 10 mg/mL carboxymethyldextran. Each mAb was captured on a separate surface using a 42-second contact time, and a 5-minute wash for stabilization of the mAb baseline.
(§2) Data were fit globally to a 1:1 interaction model to determine the binding kinetics.

human Angiopoietin-2 [3] = biological target: T5, human Angiopoietin-2; assay: Biacore; kd held constant (*)
Protocol: as §1, §2

human Angiopoietin-2 [4] = biological target: T5, human Angiopoietin-2; assay: inhibition of rhAng-2 binding to its receptor
mouse Angiopoietin-2 = biological target: T6, mouse Angiopoietin-2 (mouse, UniProt O35608 19-496); assay: ELISA, recombinant mouse Ang-2
T6 construct: Used as conditioned medium of transfectants; also called mAng-2; mouse Ang-2
T6 sequence: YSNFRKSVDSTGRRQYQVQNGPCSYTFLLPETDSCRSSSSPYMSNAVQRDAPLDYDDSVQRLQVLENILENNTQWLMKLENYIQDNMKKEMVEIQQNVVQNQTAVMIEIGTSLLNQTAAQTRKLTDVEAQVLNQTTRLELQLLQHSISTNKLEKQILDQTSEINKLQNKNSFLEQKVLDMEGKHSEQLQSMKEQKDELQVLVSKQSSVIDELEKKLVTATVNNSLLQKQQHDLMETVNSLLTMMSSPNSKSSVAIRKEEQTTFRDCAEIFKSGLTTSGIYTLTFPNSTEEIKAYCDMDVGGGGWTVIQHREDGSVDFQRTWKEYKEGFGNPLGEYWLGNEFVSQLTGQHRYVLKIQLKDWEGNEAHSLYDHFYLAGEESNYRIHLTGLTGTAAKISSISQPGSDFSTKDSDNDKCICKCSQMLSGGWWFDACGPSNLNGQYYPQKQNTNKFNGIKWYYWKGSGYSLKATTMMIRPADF

[5] = biological target: T7, recombinant human Tie2/Fc fusion protein (human, UniProt Q02763 23-745); assay: FACS competition: binding of His-tagged recombinant human Ang-1 to Tie2 on HEK293F/Tie2 transfectants, soluble Tie2/Fc titrated, n = 3
T7 construct: Bought fusion protein; also called hTie2/Fc; soluble Tie2/Fc
T7 sequence (Q02763 23-745 limits assumed): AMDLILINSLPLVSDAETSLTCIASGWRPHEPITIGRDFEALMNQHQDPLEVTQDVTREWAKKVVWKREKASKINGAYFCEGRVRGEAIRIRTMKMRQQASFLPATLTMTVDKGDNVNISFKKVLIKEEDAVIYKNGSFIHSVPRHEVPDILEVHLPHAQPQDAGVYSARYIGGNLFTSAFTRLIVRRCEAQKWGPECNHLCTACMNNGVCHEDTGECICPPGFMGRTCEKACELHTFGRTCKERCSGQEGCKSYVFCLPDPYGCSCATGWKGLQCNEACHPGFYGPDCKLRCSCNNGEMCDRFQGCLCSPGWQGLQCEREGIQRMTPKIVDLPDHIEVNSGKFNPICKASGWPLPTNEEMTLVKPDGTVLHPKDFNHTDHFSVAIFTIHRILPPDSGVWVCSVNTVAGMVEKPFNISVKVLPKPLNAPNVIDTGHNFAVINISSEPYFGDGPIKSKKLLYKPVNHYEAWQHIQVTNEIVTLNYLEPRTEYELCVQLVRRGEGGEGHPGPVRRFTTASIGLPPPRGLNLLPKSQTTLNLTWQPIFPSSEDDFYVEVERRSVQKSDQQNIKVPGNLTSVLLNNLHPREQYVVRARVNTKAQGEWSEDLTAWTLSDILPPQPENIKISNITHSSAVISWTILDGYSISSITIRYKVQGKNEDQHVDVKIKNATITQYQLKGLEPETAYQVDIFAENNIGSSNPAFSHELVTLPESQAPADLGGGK
Protocol: Cell suspension of 4 million cells/mL in FACS Buffer were prepared, and then aliquoted to a 96-well polypropylene plate with 50 ul per well. […] Cells were washed by centrifuging the plate at 1,200 rpm for 5 minutes, removing the supernatant by aspirating, and resuspending the cells with 200 ul per well of FACS Buffer. Washing procedures were repeated twice. The cells were then suspended with 100 ul of mouse Anti-6×-Histidine antibody diluted to 2 ug/ml in FACS Buffer, and incubated at room temperature for 30 minutes. After washing, the cells were suspended in 100 ul of PE-conjugated goat anti-mouse-IgG, which was diluted 1:100 in FACS Buffer, for incubation at room temperature for 30 minutes. The volume of the samples were brought to 300 ul with FACS Buffer, and measured with FACS Calibur.

- % of binding to human Ang-2 (human Ang-2443): 100%
- % of binding to human Ang-2 [1]: 100%
- % of binding to human Ang-2 (human Ang-2 V345M): 100%
- % of binding to human Ang-2 (human Ang-2 H375Q): 100%
- binding result (human Angiopoietin-1): no binding
- Kd (human Angiopoietin-2 [2]): ≤ 0.073 nM
- kon (human Angiopoietin-2 [2]): 140000 M⁻¹ s⁻¹
- koff (human Angiopoietin-2 [3]): ≤ 1e-05 s⁻¹
- OD650 in inhibition assay (human Angiopoietin-2 [4]): 0.0617 OD650
B1: mAb 6.3.1 (antibody, V domains shown)
VH: QVQLVQSGAEVKKPGASVKVSCKASGYTFTGYFMHWVPQAPGQGLEWMGWINPNSGGTNYAQNFQGRVTMTRDTSISTAYMELSRLRSDDTPVYYCARDPWQNWNSYFDYWGQGTLVTVSS
VL: DIQMTQSPSSLSASVGDRVTITCRASQSIRSYLNWYQQKPGKAPKVLIYAASSLQSGVPSRFSGSGSGTDFTLTISSLQPEDFATYYCQQSYSTLCSFGQGTKLEIKR
notes: Human hybridoma IgG (XenoMouse); also called x6.3

- binding result (human Angiopoietin-1): no binding
- binding result (mouse Angiopoietin-2): no binding
B2: mAb 5.41.1 (antibody, V domains shown)
VH: EVQLVESGGGLVQPGGSLRLSCAASGFTFSSYWMSWVRQAPGKGLEWVANIKEDGSEKYYVDSVKGRFTISRDNAKNSLYLQMNSLRAEDTAVFYCARDRSSGFFDYWGQGTLVTVSS
VL: EIVMTQSPATLSVSPGERATLSCRASQSVSSNLAWYQQKPGQAPRFLIYGASTRATGIPARFSGSGSGTEFTLTISSLQSEDFAVYYCQQYNHWWTFGQGTKVEIKR
notes: Human hybridoma IgG (XenoMouse); also called x5.41

- binding result (human Angiopoietin-1): no binding
- binding result (mouse Angiopoietin-2): no binding
B3: mAb 5.16.3 (antibody, V domains shown)
VH: QVQLVQSGAEVKKPGASVKVSCKASGYTFTGFYMYWVRQAPGQGLEWMGWINPNSSGTNHAQKFQGRVTMTRDTSISTAYMELSRLRSDDTAVYYCARDQDIATAGPFDYWGQGTLVTVSS
VL: EIVMTQSPATLSVSPGERATLSCRASQSVSSNLAWYQQKPGQAPRLLIFGASTRATGIPARFSGSGSGTEFTLTISSLQSEDFAVYYCQQYNNWWTFGRGTKVEIKR
notes: Human hybridoma IgG (XenoMouse); also called x5.16

Binder: B4
- binding result [5]: binds
